From a protein production outcome set (Wang et al. 2014) come the findings set out here.

The data set in a line: label from the status in PepcDB records.
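Also: failed if final PepcDB status was selected cloned or expressed and not failed if soluble or beyond.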

“MSNSMLDKNKAILTGGGALLLGLIVLFYLAYRPKAEVLQGFLEAREYSVSSKVPGRIEKVFVKKGDHIKKGDLVFSISSPELEAKLAQAEAGHKAAKALSDEVKRGSRDETINSARDVWQAAKSQATLAKETYKRVQDLYDNGVASLQKRDEAYAAYESTKYNESAAYQKYKMALGGASSESKIAAKAKESAALGQVNEVESYLKDVKATAPIDGEVSNVLLSGGELSPKGFPVVLMIDLKDSWLKISVPEKYLNEFKVGKEFEGYIPALKKSTKFRVKYLSVMGDFATWKATNNSNTYDMKSYEVEAIPLEELENFRVGMSVLVTIKP”: the protein production result is recorded as “failed”.

For “MSNSQWVPVSLNEYLAHLPMSDEQRAELASCTTFAELHERLSAQPVTDPAEAAQASVGRRLTLSADDLEDAEMLGVDASGRLCLKATPPIRRTKVVPEPWRTNILVRGWRRLTGKSNPPKPDHSDLPRDLPKSRWRTVGSIRRYILLILMLGQTIVAGSYMKGILPYQGWSLVSLDEITRQTFVQTALQVLPYALQTSILLLFGILFCWVSAGFWTALMGFLELLTGRDKYRISGASAGNEPIEAGARTALVMPICNEDVPRVFAGLRATFESVAATGNLDRFDFFVLSDTNETDIAVAEQQAWLDVCRETKGFGSIFYRRRRRRVKRKSGNLDDFCRRWGGEYRYMVVLDADSVMSGECLTSLVRLMEATPDAGIIQTAPRASGMDTLYARMQQFATRVYGPLFTAGLHFWQLGESHYWGHNAIIRMKPFIEHCALAPLPGKGAFAGAILSHDFVEAALMRRAGWGVWIAYDLPGSYEELPPNLLDELKRDRRWCHGNLMNFRLFLVKGMHPVHRAVFLTGVMSYLSAPLWFFFLVLSTALLAVNTLMEPTYFLEPRQLYPLWPQWHPERAVALFSTTIVLLFLPKLLSVILIWAKGAKGFGGKFKVTVSMLLEMLFSVLLAPVRMLFHTRFVLAAFLGWAATWNSPQRDDDSTPWLEAVKRHGPQTLLGACWALLVFWLNPSFLWWLAPIVVSLMLSIPVSVISSRTNLGLKARDEKFFLIPEEFEPPQELVSTDQYTHENRWHALKQGFIRAVVDPRQNALACALATSRHRQAQPIEVVRMERVDHALKVGPAKLDNQHRLMLLSDPVALGRLHERVWSEGHEEWLAAWRASIEADPHAPLLPLQPVVKAPEPVLV”, the protein production result is recorded as “failed”.

With “MSNSSQYYTRTAQFLHWIMAIIFISAWIIGFYSGNFLNYETDGSFKGDVITLHKNIATTIIFLVMIRIFWRYTHPTPELPATMSPLMKKLAHLGHLALYVILIALPISGCFYSWSAGHPAPVLYLFNIPQLIGENPEIMAIAKPVHVYLSWFAGLMVAGHILAALKHHFIDKDNVLKSMIKQSR”, the protein production result is “failed”.

With “MSNSTEPALAIITVTYSPGKHLGAFLSSVKEATAQPTYVVLADNGSVDGVPEAAAQADPSVEFFPTGGNIGYGSAINAAVRKLAPLRESGKINAEFFVLSNPDVVFEPGSIDAMVQCASRHPQAADIGPYIRQSDGSAYPSARQVPTIKNGVGHALFSSVWPSNPWSRAYRDNRDMTTERTAGWLSGSCLLVRWDAFEQIGGFDERYFMYMEDVDLGDRFGRAGFDNVFCPDAVITHAVGHAAGKHPEKMLPAHHDSAYRFQADRHPGLRYLPLRVLLRVGLKLRAVVAVAAAKFKLEHHHHHH”, the protein production entry was “not failed”.

Regarding “MSNTVRAISPDITLFNKTLTFQEISQNTREAVIYIHGGAWNDPENTPNDFNQLANTIKSMDTESTVCQYSIEYRLSPEITNPRNLYDAVSNITRLVKEKGLTNINMVGHSVGATFIWQILAALKDPQEKMSEAQLQMLGLLQIVKRVFLLDGIYSLKELLVEYPEYDCFTRLAFPDGIQMYEEEPSRVMPYVKKALSRFSIDMHLVHSYSDELLTLRQTNCLISCLQDYQLSFKLYLDDLGLHNDVYKNGKVAKYIFDNIC”, the protein production entry is “not failed”.

Consider “MSNYNVSLVGPAPWGFRLQGGKDFNMPLTISSLKDGGKASQAHVRIGDVVLSIDGISAQGMTHLEAQNKIKACTGSLNMTLQRASAAAKSEPVAVQKGEPKEVVKPVPITSPAVSKVTSTTNMAYNKVPRPFGSVSSPKVTSIPSPSSAFTPAHAATSSHASPPPVAAVTPPPLSASGLHASANPSAAQCSSPPNTGKPAVHVPRQPTVTSVCSESAQELAEGQRRGSQGDIKQQNGPPRKHIVERNTEFYHIPTHSDASKKRLIEDTEDWRPRTGTTQSRSFRILAQITGTEHLKESENDNAKKANSTPEPSQQSASPLSAAESLESPGSNRPVVAGLRSAAAFKPVGSTSVKSPSWQRPNQAAPSTGRISNSASSSGTGAPMKPAVGPPQPSDQDTLVQRAEHIPAGKRTPMCAHCNQAIRGPFLVALGKSWHPEEFNCAHCKNTMAYIGFVEEKGALYCELCYEKFFAPECGRCQRKILGEVINALKQTWHVSCFVCVACGKPIRNNVFHLEDGEPYCETDYYALFGTICRGCEFPIEAGDMFLEALGSTWHDTCFVCSVCCESLEGQTFFSKKDKPLCKKHAHSVNF”, for which the protein production result is on record as “failed”.

On to “MSPEGAERYDRNCDHQFQKGHVLIEMMGIKKGDFVLDVGCGTGRQALNVAGIIGPAGKLTGIDPSSYRIELARKKFEGDSSGNVRFLVRQAENLQDIPDNSINHAYFCSSFHWVDDKKTALNEIFRVLRPGGKVGMTTLDRNSPNTMKALIDPILAKFGIERRHEWHRGMKKVTAPELHDLLSGAGFTSISIEPRAVPRKYNSPEEFLQHPEEKDSSRGILRDISNETLEKLRQEITEEFRKAQTPEDIGFGNITLFAIATKAQEGLEHHHHHH”, for which the protein production result is given as “failed”.

Regarding “MSPENKICMEQSEDGDLDAGDELFEEVDGDGKGEIFANRELLNIDHVPDENRIVGRDEHITELANEIGPAVTGSPPNSVILYGKTGSGKSLVANHVMERARREAQRRDRRLATVTVDCAQSRGEADTVQTIADKINRSTSGVTVPTRGISTNEYYNRLWQILGTEYDAALITLDEVDRLSDDDILMILSRAREAGKVDVPIGIISISNKVNFREQMTERVKSSLGHNEMIFDPYDGEQLRQILENRKDAFQEDILMPGVIPKTAALAAQRHGDARKAIRLLRHAGDYAKTNNIGTVKESHLELAQEQAEVERLKELISGLPPHSKYVLYALANLTDGTTNSNDWFRTTVIYDVYEEVCKTEATDTLTTDTIRGLLNELAFLEITESNQEHGGMGKGTYKEHRLLWDPNVVFKMNPGSAQVDTDR”, the protein production entry is reported as “failed”.

As for “MSPIDEFTYIKQNKIVYDSNSLIQLYFPIMGSDAMALYDYFVHFFDDGIRRHKFSEVLNHLQYGMPRFQDALVMLTALDLLTVYQATGTYLVKLNQAMSNELFLSNPIYRRLLEKRIGEVAVAELDMKIPKNARDISKKFTDVFSDLGQPKQEVNRSKNVFDLESFKRLMMRDGLRFNNEKDDVLGIYSVSELYHLNWYDTYQLAKQTAINGMIAPQRMKVQQNEGQHIKDNQSFTNNEKVILRESKNDSALVFLEKIKRSRKAVTTSGEKTLLEDLAKMNFLDEVINVMVLYTLNKTKSANLNKAYIMKVANDFAFQNVMTAEDAVLKIRDFSDQKVRTKTETKKKQSNVPEWSNPDYKDEVSPEKEIELEQFKTDALKRLERLGKD”, the protein production entry was “not failed”.

As for “MSPIHVRAHPGDVAERVLLPGDPGRAEWIAKTFLQNPRRYNDHRGLWGYTGLYKGVPVSVQTTGMGTPSAAIVVEELVRLGARVLVRVGTAGAASSDLAPGELIVAQGAVPLDGTTRQYLEGRPYAPVPDPEVFRALWRRAEALGYPHRVGLVASEDAFYATTPEEARAWARYGVLAFEMEASALFLLGRMRGVRTGAILAVSNRIGDPELAPPEVLQEGVRRMVEVALEAVLEV”, the protein production entry was “not failed”.

Regarding “MSPIVSVPDITAPVENVPAILPKVVPGELIVNKPTGGDSDELFQYLVDILASPVYDVAIESPLELAEKLSDRLGVNFYIKREDKQRVFSFKLRGAYNMMSNLSREELDKGVITASAGNHAQGVALAGQRLNCVAKIVMPTTTPQIKIDAVRALGGDVVLYGKTFDEAQTHALELSEKDGLKYIPPFDDPGVIKGQGTIGTEINRQLKDIHAVFIPVGGGGLIAGVATFFKQIAPNTKIIGVEPYGAASMTLSLHEGHRVKLSNVDTFADGVAVALVGEYTFAKCQELIDGMVLVANDGISAAIKDVYDEGRNILETSGAVAIAGAAAYCEFYKIKNENIVAIASGANMDFSKLHKVTELAGLGSGK”, the protein production entry was “not failed”.

For “MSPSDSSGDSDDPARSRAAVRRTYEDIGDHFSKTREYAWPEVESFVDESGSVGTALDAGCGNGRHAELLAGVADRVVGLDASRALLRAATDRVGDSVALLQGDATRLPLAAGAVDLAVYVATLHHLPSQTARRASLDELARVLAPGARALVSAWSTAHDHFDADPDADEGFDTTVDWTLPGGETVPRFYHIYAPAEFERDVADSDLRLVSMELSSGNCYGVVEPEGKRT”, the protein production result was “failed”.

As to “MSQEDITGKDRLQELIGADYRLQWIIGHGGMSTVWLADDVVNDREVAIKVLRPEFSDNQEFLNRFRNEAQAAENIDSEHVVATYDYREVPDPAGHTFCFIVMEFVRGESLADLLEREGRLPEDLALDVMEQAAHGLSVIHRMDMVHRDIKPGNMLITANGIVKITDFGIAKAAAAVPLTRTGMVVGTAQYVSPEQAQGKEVTAASDIYSLGVVGYEMMAGRRPFTGDSSVSVAIAHINQAPPQMPTSISAQTRELIGIALRKDPGRRFPDGNEMALAVSAVRLGKRPPQPRTSAMMAQAEAPSPSESTAMLGRVARPATITQEAAPKRGSGIGIGLFIAALLAVIIGAVIYAGTTGILFNDTPEETTTPETITETYTPTVEETTSQWVPPTPPTRSTFTEPETTSHRPTTSEESTSEEPTTEAPTSSRTVPQIPTSTPRTSASVPVETNAPADDLIDAVNGLLDVGGAQ”, the protein production entry is “failed”.

In the case of “MSQERTDGDLRNTGLSLKHDREWDYELDRIVEAVEERDAEKVGLQFPEGLKRRGPAVADDLREELPDDVTVLLSGQPCYGACDLDTYMMRRTDVFVHFGHSPMKESDKIIYVPLFSNVDVFPIMEQAREEQLADPEDDPDVGLVTTAQHMNKFDEMREWLEERGYTVHTRRGDERLTHEGQVLGCNYASADVDADQMLYVGGGKFHPLGLAMEHPEKHVVIADPVNNVVTVADTEKFMKQRYGAVHRAMDAESWGVIFCTKIGQGRWDQAEEIVENNENAYLITMDEVTPDRLTNFGMDAYVNTGCPRITTDDGPQFKKPMLTPGEYEIAIGEKPLDSLEFDTFHGTWLEHHHHHH”, the protein production result is reported as “not failed”.

Regarding “MSQFDRIHLVVLDSVGIGAAPDANDFVNAGVPDGASDTLGHISKTVGLAVPNMAKIGLGNIPRPQALKTVPAEENPSGYATKLQEVSLGKDTMTGHWEIMGLNITEPFDTFWNGFPEDIITKIEDFSGRKVIREANKPYSGTAVIDDFGPRQMETGELIIYTSADPVLQIAAHEDIIPLEELYRICEYARSITMERPALLGRIIARPYVGEPGNFTRTANRHDYAVSPFEDTVLNKLDQAGIDTYAVGKINDIFNGSGINHDMGHNKSNSHGIDTLIKTMGLSEFEKGFSFTNLVDFDALYGHRRDPHGYRDCLHEFDERLPEIISAMRDKDLLLITADHGNDPTYAGTDHTREYIPLLAYSPSFTGNGLIPVGHFADISATVADNFGVDTAMIGESFLQDLV”, the protein production result is on record as “failed”.

Consider “MSQIEAVFFDCDGTLVDSEVICSRAYVTMFRQFGITLELTEVFRRFKGVKLYEIIDTISKEHGVALAKAELEPVYRAEVARLFDTELEAIAGANTLLESIKTPMCVVSNGPVSKMQHSLGKLGMLHHFPDLLFSGYDIQRWKPDPALMLHAANAMKVNVEKCILVDDSSAGAQSGIAAGMEVFYFCADPHNKPIDHPNVTTFTDLAQLPGLWKARGWEI”, for which the protein production result was “not failed”.

As for “MSQIWFERILRWRKKAQRFLQGRYARFDELNRTLLLTSVVLALINIFTGYLWVRLLILITVAYVYYRFFSKHIHPRLNENQWFILRKQRLMQKVHAFRKRHMTQKEYRYFKCPKCQQSLRAPKGRGTIKVTCSNCQNQFIKKV”, the protein production entry was “failed”.
